Experimental data published in US20250026849A1 (ARCELLX, published 2025).
Where a chain is given by its changes, count along the chain named. Each block holds one binder with its values, some of them ahead of it.

Target: T1, BCMA (Homo sapiens (Human), UniProt Q02223 1-54, limits assumed)
T1 sequence: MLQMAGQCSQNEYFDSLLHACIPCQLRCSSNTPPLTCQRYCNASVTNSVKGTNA
Experiment: ELISA, format not described
Parameters: unit not given here

ELISA_avg: 10.7
B4: D-domain SEQ ID NO: 229 (designed binder)
chain: MGSWIEFAMRLEAIENRLTALGGSEAELAIFESMIAHFEELLQNYKGKGNPEVEALIHEAFAIHKELWAYRHN

ELISA_avg: 6.16
B5: D-domain SEQ ID NO: 225 (designed binder)
chain: MGSWDEFQFRLAAIGFRLGALGGSEAELAAFEKEIAAFESELQAYKGKGNPEVEVLRRQAARIRHLLQAYRHN

ELISA_avg: 4.05
B6: D-domain SEQ ID NO: 228 (designed binder)
chain: MGSWGEFEHRLDPSTCVWLALGGSEAELAAFEKEIAAFESELQAYKGKGNPEVEKLRRGAAVIRHWLQAYRHN

ELISA_avg: 4.12
B7: D-domain SEQ ID NO: 226 (designed binder)
chain: MGSWYEFVTRLHAIDHRLKALGGSEADLAAFEKEIAAFESELQAYKGKGNPEVEWLRFYAAGIRMNLQAYRHN

ELISA_avg: 12.4
B8: D-domain SEQ ID NO: 231 (designed binder)
chain: MGSWNEFYDRLRAIKKRLYALGGSEAELADFEEDIAQFEVDLQDYKGKGNPEVEALHREAHAITHELWAYRHN

ELISA_avg: 6.01
B19: D-domain SEQ ID NO: 230 (designed binder)
chain: MGSWNEFYQRLEAIENRLQALGGSEAELAMFEVRIALFEDMLQGYKGKGNPEVEALKQEAIAILRELIAYRHN

ELISA_avg: 8.43
B20: D-domain SEQ ID NO: 227 (designed binder)
chain: MGSWSIEFWRLEAIKFRLIALGGSEAELAAFEKEIAAFESELQAYKGKGNPEVEFLRVEAAAIRRVLQAYRHN

The remaining lines, values behind:

B1: D-domain SEQ ID NO: 216 (designed binder)
chain: MGSWDEFEFRLGALRWRLIALGGSEAELAAFEKEIAAFESELQAYKGKGNPEVEYLRFGAAHIRHILQAYRHN
ELISA_avg: 9.2

B2: D-domain SEQ ID NO: 217 (designed binder)
chain: B1 chain with D5T, E8Y, F9H, G12Y, L14I, W16E, I19S, I66L
ELISA_avg: 9.63

B3: D-domain SEQ ID NO: 218 (designed binder)
chain: B1 chain with D5V, F9T, G12D, L14I, W16M, I19G, H65A, I66L
ELISA_avg: 14.1

B9: D-domain SEQ ID NO: 219 (designed binder)
chain: MGSWGEFDVRLFAIRERLSALGGSEAELAAFEKEIAAFESELQAYKGKGNPEVEYLRGYAAQIRSFLQAYRHN
ELISA_avg: 7.35

B10: D-domain SEQ ID NO: 221 (designed binder)
chain: B9 chain with G5S, V9G, F12G, R15W, E16D, S19Y, G58D, Y59R, S65E
ELISA_avg: 10

B11: D-domain SEQ ID NO: 222 (designed binder)
chain: B9 chain with D8E, V9G, F12H, E16S, Y55V, Q62W, S65A, F66L
ELISA_avg: 6.17

B12: D-domain SEQ ID NO: 223 (designed binder)
chain: B9 chain with D8N, V9G, F12G, S19Q, Y55F, G58A, Q62S, S65A, F66V
ELISA_avg: 4.95

B13: D-domain SEQ ID NO: 220 (designed binder)
chain: B9 chain with G5V, V9E, F12S, S19D, G58L, S65V
ELISA_avg: 5.61

B14: D-domain SEQ ID NO: 211 (designed binder)
chain: MGSWTEFWERLYAIEYRLFALGGSEAELAAFEKEIAAFESELQAYKGKGNPEVEKLRSVAATIRYELQAYRHN
ELISA_avg: 12.7

B15: D-domain SEQ ID NO: 215 (designed binder)
chain: B14 chain with T5H, E9D, Y16F, K55S, S58Q, T62K, Y65W, E66H
ELISA_avg: 7.3

B16: D-domain SEQ ID NO: 213 (designed binder)
chain: B14 chain with T5Y, E9K, K55A, S58K, T62K, Y65E, E66Q
ELISA_avg: 14.8

B17: D-domain SEQ ID NO: 212 (designed binder)
chain: B14 chain with T5N, Y16L, S58M, V59T, T62Y, Y65N
ELISA_avg: 9.95

B18: D-domain SEQ ID NO: 224 (designed binder)
chain: MGSWWEFTFRLAAIEFRLEALGGSEAELAAFEKEIAAFESELQAYKGKGNPEVEDLRAIAAEIRKSLQAYRHN
ELISA_avg: 5.75
